Assay results published in the supplement of paper PMC6755084.

B1: minF1; a variant is named by its letters at N, in order (parent)
chain: GAGACCGCAACTGAAAAGTTGTTNNNNAANNNNGGNTNNATTTCTGCACGTAGAAGCAAAAGGC

Variants of: B1
Experiment: fraction ligated after 30 min (ligated reads / total reads); higher = more ligase activity
Details: with F1*subA RNA substrate (template-directed ligation), 42 °C
Method: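 Chip-synthesised pool of minF1 ligase ribozyme variants (single and double substitutions, single to quadruple deletions, bulge and P2 designed variants) was transcribed with T7 and reacted as a pool with excess substrate F1*subA for 30 min at 42 C in 50 mM EPPS pH 8.5, 25 mM MgCl2. Ligated and unligated RNAs were separated by PAGE, barcoded by RT and deep sequenced; fraction ligated = ligated reads / total reads, relative activity = FL / FL of wild-type minF1 (0.76); sequencing FL correlated with PAGE (R2 = 0.98). Sequences are the DNA template of the ribozyme.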

Row | Variant | fraction ligated
1 | TAGATGGAGTT T23A G34T T37G | 0.000868
2 | TAGATGGTTGA T23A | 0.00325
3 | ATCGAGGAGTA G34T | 0.00121
4 | TCAGATGGGTG T23A | 0.00293
5 | ATCAAGGTGTA A28G | 0.00466
6 | TCGATGATGTG T23A | 0.00459
7 | TCAAGGATGTA T23A | 0.000851
8 | CAGATGGTTGA | 0.000297
9 | ATAGATGGGTA G34A | 0.00325
10 | ATAAGATGTGA A29T | 0.00321
11 | TCAGATGGGTG T23A G34T | 0.00324
12 | ATAGAGGTGTA | 0.00141
13 | CGAAGGATGTA T23A A29T | 0.0054
14 | ATCAGGATGTA | 0.00297
15 | ATCAGGATGTA A29T | 0.00407
16 | ATCATGGGTGA A28G | 0.00379
17 | TCAAGATGTGA | 0.00179
18 | ACAGTGGTGTA | 0.000648
19 | ATAGATAGTGA | 0.00268
20 | ATCGATATTGA | 0.00165
21 | ATAGATGGGTT G34T T37G | 0.00071
22 | CAGATGGAGTT T23A G34T T37G | 0.00071
23 | CAAAGGTGTGA A29T | 0.00133
24 | ATCAAGGAGTA A28G G34T | 0.00153

Row | Variant | fraction ligated
25 | ATCAAGAGTGA A28G | 0.00247
26 | ACAGAGTGTGA | 0.00284
27 | TAGATGGAGTT G34T T37G A40G | 0.00199
28 | ATCGAGGAGTT G34T T37G | 0.00239
29 | TCAAGGATTGA T23A | 0.00297
30 | ATCAAATGGTT A28G T37G | 0.00127
31 | AGAAGGATGTA A29T | 0.00434
32 | ATAAGATGTGA | 0.00253
33 | TCAGGGATGTG | 0.00637
34 | AAGATGGTGTA | 0.00401
35 | TCAAGGATTGA | 0.00222
36 | ATAAGATGTGA A28T A29G | 0.0107
37 | ATAGAGATTGA | 0.0019
38 | CGAAGGATGTG A29T | 0.0152
39 | TCAATGGAGTA T23A | 0.00206
40 | TCAGATATGTA | 0.00271
41 | TCAGATATGTG | 0.00722
42 | ATAATGATGTA | 0.00361
43 | ATCAAGAGTGA | 0.0037
44 | TCGAGGATGTA T23A A29T | 0.00462
45 | ACGATGGTTGA | 0.00307
46 | TCAGAGGAGTG T23A G34T | 0.00498
47 | ATCAATGGGTT A28G G34T T37G A40G | 0.00157
48 | ATGAGATGTGA A29G | 0.00416

Row | Variant | fraction ligated
49 | ACAAGGATGTA A29T | 0.00548
50 | TCAGGGATGTG T23A | 0.00389
51 | GAAAGATGTGA T23A A28T A29G | 0.00194
52 | TCAGATATGTA T23A | 0.00212
53 | TAAAGATGTGA A29T | 0.00224
54 | ACAGTGGAGTT G34T T37G | 0.00159
55 | TCAGATATTGA T23A | 0.00254
56 | TCAGTGTGTGA | 0.00218
57 | ATCAAGATGTG A28G | 0.0128
58 | TCAGATGGGTT T23A G34A T37G | 0.000991
59 | TCAGAGAGTGA T23A | 0.0017
60 | ATAGATTGTGA | 0.00167
61 | AGAAGGATTGA A29T | 0.00498
62 | TAGATGGTGTA T23A | 0.00161
63 | CAGATGGAGTT G34T T37G | 0.0026
64 | AGAAGGATTGA T23C A29T | 0.00646
65 | ATCGTGATTGA | 0.00326
66 | ATCGGGAGTGA | 0.00227
67 | ATCAAGATTGA | 0.00249
68 | ACGAGATGTGA A29T | 0.00193
69 | TCGAGATGTGA T23A A28T A29G | 0.00546
70 | TCAGAGGAGTG G34T | 0.00594
71 | TCAATGAGTGA | 0.0012
72 | ACGATGGAGTG G34T | 0.156

Row | Variant | fraction ligated
73 | TCAATGGAGTT G34T T37G A40G | 0.00127
74 | TCAGTGGAGTG G34T | 0.0219
75 | TCGATGATGTG | 0.00893
76 | TCGATGATGTA | 0.00391
77 | TAGATATGTGA | 0.00128
78 | TCGAGATGTGA A29G | 0.00245
79 | ACAGTGGGTGA | 0.00475
80 | ATCAATGGGTT G34A T37G | 0.001
81 | ACGATGGAGTT G34T T37G A40G | 0.00103
82 | TCAGGGATGTG T23A A29T | 0.0102
83 | TCAGATGAGTT G34T T37G | 0.0017
84 | TCAGAGATGTA | 0.000871
85 | ATGATGATGTG | 0.00639
86 | ATCAAAGAGTT A28G G34T T37G A40G | 0.00143
87 | CAGATGAGTGA T23A | 0.00277
88 | AAAAGATGTGA A29T | 0.00419
89 | ATAGATGGGTG G34A | 0.00708
90 | ATAGATGGGTG G34T | 0.00668
91 | ATCAATGATGA | 0.00478
92 | TCAGATGAGTA | 0.0022
93 | ATCATGGAGTA A28G | 0.00253
94 | ATCAAGGAGTG G34T | 0.00633
95 | ACAGATGGGTA G34A | 0.00284
96 | ATAGTGAGTGA | 0.00282

Row | Variant | fraction ligated
97 | TCGATGAGTGA T23A | 0.00204
98 | CAGATGATTGA T23A | 0.00168
99 | ATCATGGTGTG A28G | 0.0033
100 | CAGAGGAGTGA A29T | 0
101 | TGAAGATGTGA T23A A29G | 0.00128
102 | ATCAATGAGTA A28G G34T | 0.00248
103 | TCAGATGGGGT G34A G35T T37G A40T | 0.00121
104 | ATCAAATGGTA A28G | 0.0012
105 | TCGATGGAGTA | 0.00705
106 | ACAGTATGTGA | 0.00319
107 | AAGATGGAGTG G34T | 0.00776
108 | TGAAGGAGTGA T23A A29T | 0.00234
109 | ACGATGTGTGA | 0.00232
110 | ATAGTGGAGTA | 0.00346
111 | ACGAGATGTGA | 0.00357
112 | ATCAAATGGTG A28G | 0.00534
113 | ACAATGGAGTG | 0.00309
114 | ATCAGATGTGA A28G A29T | 0.00278
115 | ACAGAATGTGA | 0.00222
116 | AGAAGATGTGA A29T | 0.00448
117 | TCAGATGGGTT T23A G34A G35T T37G | 0.00134
118 | AAGAGGATGTA | 0.000999
119 | ATAGGGATGTG A29T | 0.012
120 | ATCAAGGATGA A28G | 0.000468

Row | Variant | fraction ligated
121 | ATCAGGATTGA | 0.00379
122 | ATAGTGATGTA | 0.00203
123 | ATAGGGATTGA | 0.00436
124 | ATAGAATGTGA | 0.00417
125 | ATCAAAGGGTT A28G G34A G35T T37G | 0.00185
126 | TCAAGGATGTA T23A A29T | 0.00242
127 | TCAGAGGTGTA | 0.0016
128 | TAAAGGAGTGA T23A A29T | 0.00645
129 | TCAGATGGGTT G34T T37G | 0.00104
130 | ATCGTGGAGTT G34T T37G A40G | 0.00133
131 | CAGATGATGTG | 0.00641
132 | ATGAGGTGTGA | 0.00168
133 | ACAATGTGTGA | 0.00146
134 | TCAGAGGATGA | 0.00215
135 | TCAGATGTGTG T23A | 0.00627
136 | ACGAGGAGTGA A29T | 0.00454
137 | AAGAGATGTGA | 0.00157
138 | AGAAGGAGTGA A29T | 0.00436
139 | TCAGATTGTGA | 0.00132
140 | CGAAGGAGTGA T23A A29T | 0.00498
141 | TCAGATATTGA | 0.00261
142 | TCAAGGAGTGA A29T | 0.00143
143 | TAGAGGATTGA | 0.00125
144 | ATCGATGTGTA | 0.00271

Row | Variant | fraction ligated
145 | ATCGATGTGTG | 0.00543
146 | ATCAAAGTGTA A28G | 0.00412
147 | ACAGATGAGTT G34T T37G A40G | 0.00147
148 | CGAAGATGTGA T23A A29G | 0.00107
149 | ACAGATGGGTG G34A | 0.0045
150 | ATAGATGGGGT G34A G35T T37G A40T | 0.00172
151 | ACAGATGAGTG | 0.00387
152 | AAGATGGAGTA G34T | 0.00267
153 | ATAATGGAGTG | 0.00646
154 | CAGATGAGTGA | 0.00146
155 | ATCAATGGGTT A28G G34A T37G | 0.00259
156 | ATCATGATGTG A28G | 0.0138
157 | ATCAATATGTG A28G | 0.00686
158 | TAAAGATGTGA A28T A29G | 0.00323
159 | TAGAGATGTGA A29G | 0.00391
160 | TAGAGATGTGA A29T | 0.00374
161 | ATCAAAGAGTT A28G G34T T37G | 0.00139
162 | ATCAATGAGTA A28G | 0.00241
163 | ATCGGGATTGA | 0.00341
164 | ATAATGGAGTG G34T | 0.0113
165 | ATAAGGTGTGA A29T | 0.00316
166 | CAGATGGAGTA T23A | 0.00106
167 | ATCAAGGAGTT A28G G34T T37G | 0.00162
